Values quoted from earlier work, collected in PMC9866218, “Characterization and Chemical Synthesis of Cm39 (α-KTx 4.8): A Scorpion Toxin That Inhibits Voltage-Gated K^+ Channel KV1.2 and Small- and Intermediate-Conductance Ca^2+-Activated K^+ Channels KCa2.2 and KCa3.1” (Toxins, 2023).
Where two headings read alike, the source gives them in different places.

Legend:
KCa3.1 (Homo sapiens) [1] = biological target: KCa3.1 (Homo sapiens) (UniProt O15554)
KCa3.1 (Homo sapiens) [2] = biological target: KCa3.1 (Homo sapiens) (UniProt O15554); remark: listed apart in the source

KCa3.1 (Homo sapiens), sequence (O15554 whole entry): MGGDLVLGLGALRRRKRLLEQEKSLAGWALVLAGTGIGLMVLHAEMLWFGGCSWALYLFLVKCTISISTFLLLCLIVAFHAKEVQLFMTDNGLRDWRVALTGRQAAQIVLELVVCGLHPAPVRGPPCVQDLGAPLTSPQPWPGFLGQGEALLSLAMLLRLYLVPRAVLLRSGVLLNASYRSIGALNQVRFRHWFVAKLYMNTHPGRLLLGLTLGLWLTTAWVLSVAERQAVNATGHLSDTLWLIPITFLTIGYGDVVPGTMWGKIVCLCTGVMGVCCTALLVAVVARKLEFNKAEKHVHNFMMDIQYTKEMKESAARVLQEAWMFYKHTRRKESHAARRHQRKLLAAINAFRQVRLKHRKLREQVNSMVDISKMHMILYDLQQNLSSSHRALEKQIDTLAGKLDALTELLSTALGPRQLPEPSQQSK
maurotoxin (MTX, α-KTx-6.2), sequence (P80719 whole entry): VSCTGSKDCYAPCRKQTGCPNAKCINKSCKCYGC
charybdotoxin (ChTx, α-KTx-1.1), sequence (P13487 23-59): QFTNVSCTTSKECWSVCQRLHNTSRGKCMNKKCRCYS

Row | Substance | Kd (KCa3.1 (Homo sapiens) [1]) [nM] | Kd (KCa3.1 (Homo sapiens) [2]) [nM]
1 | charybdotoxin (ChTx, α-KTx-1.1) (from UniProt P13487) | 5 | –
2 | maurotoxin (MTX, α-KTx-6.2) (from UniProt P80719) | – | 1
